From US20260248837A1

Molecular target: human CXCR4 (human) (UniProt P61073)
Assay: cell-based or functional assay

Chain of UniProt P61073 (P61073 1-350): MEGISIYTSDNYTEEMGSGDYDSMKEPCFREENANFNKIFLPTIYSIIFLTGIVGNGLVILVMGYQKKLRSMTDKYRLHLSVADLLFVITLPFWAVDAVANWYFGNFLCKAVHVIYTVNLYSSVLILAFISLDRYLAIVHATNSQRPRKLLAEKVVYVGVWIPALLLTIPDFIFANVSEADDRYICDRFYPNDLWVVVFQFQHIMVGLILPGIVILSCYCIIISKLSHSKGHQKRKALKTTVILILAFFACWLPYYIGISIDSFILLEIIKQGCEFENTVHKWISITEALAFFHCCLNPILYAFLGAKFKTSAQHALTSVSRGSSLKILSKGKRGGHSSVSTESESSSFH

- migration of Jurkat cells (chemotaxis assay), half-maximal stimulation: 0.3 nM
- migration of Nalm-6 cells (chemotaxis assay), half-maximal stimulation: 0.3 nM
Substance: human CXCL12 (human CXCL12α, L-CXCL12) (ligand)
